Experimental data reported in article PMC10132805.

Legend:
[1] = biological target: V domain of programmed cell death 6-interacting protein (ALIX V) (human) (UniProt Q8WUM4)
[2] = biological target: C terminal domain of polyadenylate-binding protein 1 (human) (UniProt P11940)
[3] = biological target: centrosomal protein of 55 kDa EABR domain (CEP55 EABR) (human) (UniProt Q53EZ4)
[4] = biological target: FITC - UL56 46-55 (HHV2) (Human herpesvirus 2 (strain HG52) (HHV-2))
[5] = biological target: FITC - ARRB2 370-379 (Human) (Homo Sapiens)
[6] = biological target: FITC - PDCD6IP 797-809 (Human) (Homo Sapiens)
[7] = biological target: N-terminal domain of clathrin (CLTC NTD) (human) (UniProt Q00610)
[8] = biological target: programmed cell death 6-interacting protein (ALIX) V domain (human)
[9] = biological target: E3 ubiquitin-protein ligase NEDD4 WW2 domain (human)
[10] = biological target: E3 ubiquitin-protein ligase NEDD4 WW4 domain (human)
[11] = biological target: FITC - gag 493-502 (HIV1) (Human immunodeficiency virus type 1 group N (isolate YBF30) (HIV-1))

Sequence of N-terminal domain of clathrin (CLTC NTD) (human) (Q00610 whole entry, the tested form may be a part): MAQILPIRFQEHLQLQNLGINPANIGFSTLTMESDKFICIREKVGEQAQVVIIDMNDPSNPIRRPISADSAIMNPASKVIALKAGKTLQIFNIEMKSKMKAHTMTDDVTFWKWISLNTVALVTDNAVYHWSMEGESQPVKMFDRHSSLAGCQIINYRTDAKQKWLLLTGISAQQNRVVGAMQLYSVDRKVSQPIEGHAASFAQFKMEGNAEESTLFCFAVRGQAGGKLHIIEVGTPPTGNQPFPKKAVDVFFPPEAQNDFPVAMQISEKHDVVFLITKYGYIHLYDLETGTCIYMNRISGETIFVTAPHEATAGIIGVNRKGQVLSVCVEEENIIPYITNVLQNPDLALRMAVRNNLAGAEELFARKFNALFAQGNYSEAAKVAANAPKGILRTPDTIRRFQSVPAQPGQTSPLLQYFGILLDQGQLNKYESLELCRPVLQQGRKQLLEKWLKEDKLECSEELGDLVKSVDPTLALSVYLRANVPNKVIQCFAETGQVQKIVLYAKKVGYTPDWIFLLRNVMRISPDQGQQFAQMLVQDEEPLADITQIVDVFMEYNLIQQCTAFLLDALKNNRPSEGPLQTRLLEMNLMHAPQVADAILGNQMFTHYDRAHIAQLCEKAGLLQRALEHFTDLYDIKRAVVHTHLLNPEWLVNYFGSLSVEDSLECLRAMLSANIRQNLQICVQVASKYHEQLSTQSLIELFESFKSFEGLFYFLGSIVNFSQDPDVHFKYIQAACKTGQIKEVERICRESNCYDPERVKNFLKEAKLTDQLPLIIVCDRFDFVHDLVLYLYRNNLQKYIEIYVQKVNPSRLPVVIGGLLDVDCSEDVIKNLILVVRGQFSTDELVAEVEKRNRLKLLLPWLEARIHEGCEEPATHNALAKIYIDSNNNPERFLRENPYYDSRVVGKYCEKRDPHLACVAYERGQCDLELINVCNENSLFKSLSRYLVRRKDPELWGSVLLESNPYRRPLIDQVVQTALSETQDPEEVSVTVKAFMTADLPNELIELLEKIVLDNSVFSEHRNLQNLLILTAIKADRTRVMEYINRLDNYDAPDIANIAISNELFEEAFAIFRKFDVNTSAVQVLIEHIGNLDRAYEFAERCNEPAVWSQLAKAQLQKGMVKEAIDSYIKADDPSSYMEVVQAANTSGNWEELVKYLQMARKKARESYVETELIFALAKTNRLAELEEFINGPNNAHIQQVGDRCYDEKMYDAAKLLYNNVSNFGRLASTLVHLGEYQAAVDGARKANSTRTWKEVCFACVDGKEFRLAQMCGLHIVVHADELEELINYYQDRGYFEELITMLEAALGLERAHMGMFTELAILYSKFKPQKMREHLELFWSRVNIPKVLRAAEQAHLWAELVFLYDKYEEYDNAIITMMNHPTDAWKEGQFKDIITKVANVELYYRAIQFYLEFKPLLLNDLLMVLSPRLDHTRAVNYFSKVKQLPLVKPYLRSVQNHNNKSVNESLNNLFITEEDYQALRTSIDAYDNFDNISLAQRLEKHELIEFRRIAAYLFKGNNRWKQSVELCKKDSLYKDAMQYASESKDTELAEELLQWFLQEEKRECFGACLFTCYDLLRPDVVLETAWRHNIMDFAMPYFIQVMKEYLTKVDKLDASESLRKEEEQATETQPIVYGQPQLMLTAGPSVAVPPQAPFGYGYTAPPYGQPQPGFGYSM
Sequence of V domain of programmed cell death 6-interacting protein (ALIX V) (human) (Q8WUM4 whole entry, the tested form may be a part): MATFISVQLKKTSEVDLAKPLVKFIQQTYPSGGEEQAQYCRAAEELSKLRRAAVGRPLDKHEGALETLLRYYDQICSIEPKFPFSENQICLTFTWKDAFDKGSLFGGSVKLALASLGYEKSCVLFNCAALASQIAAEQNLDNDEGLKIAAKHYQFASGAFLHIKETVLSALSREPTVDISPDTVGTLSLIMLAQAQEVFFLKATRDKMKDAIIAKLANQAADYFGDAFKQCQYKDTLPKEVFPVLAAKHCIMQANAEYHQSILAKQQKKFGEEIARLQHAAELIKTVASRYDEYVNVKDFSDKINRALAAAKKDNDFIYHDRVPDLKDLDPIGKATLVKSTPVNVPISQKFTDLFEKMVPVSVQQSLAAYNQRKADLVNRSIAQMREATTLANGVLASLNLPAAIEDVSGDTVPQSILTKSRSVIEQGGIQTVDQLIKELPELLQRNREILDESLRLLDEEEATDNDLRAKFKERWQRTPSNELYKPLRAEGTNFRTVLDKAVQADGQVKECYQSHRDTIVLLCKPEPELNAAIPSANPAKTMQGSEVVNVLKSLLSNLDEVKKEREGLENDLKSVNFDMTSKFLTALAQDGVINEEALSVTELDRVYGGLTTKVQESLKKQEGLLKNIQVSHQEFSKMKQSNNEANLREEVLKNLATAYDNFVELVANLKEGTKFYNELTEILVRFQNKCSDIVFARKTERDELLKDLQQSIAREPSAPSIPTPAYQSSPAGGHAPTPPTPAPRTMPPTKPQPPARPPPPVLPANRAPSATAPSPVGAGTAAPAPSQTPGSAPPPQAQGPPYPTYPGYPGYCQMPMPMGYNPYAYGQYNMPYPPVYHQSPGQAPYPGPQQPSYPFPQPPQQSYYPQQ
Sequence of centrosomal protein of 55 kDa EABR domain (CEP55 EABR) (human) (Q53EZ4 whole entry, the tested form may be a part): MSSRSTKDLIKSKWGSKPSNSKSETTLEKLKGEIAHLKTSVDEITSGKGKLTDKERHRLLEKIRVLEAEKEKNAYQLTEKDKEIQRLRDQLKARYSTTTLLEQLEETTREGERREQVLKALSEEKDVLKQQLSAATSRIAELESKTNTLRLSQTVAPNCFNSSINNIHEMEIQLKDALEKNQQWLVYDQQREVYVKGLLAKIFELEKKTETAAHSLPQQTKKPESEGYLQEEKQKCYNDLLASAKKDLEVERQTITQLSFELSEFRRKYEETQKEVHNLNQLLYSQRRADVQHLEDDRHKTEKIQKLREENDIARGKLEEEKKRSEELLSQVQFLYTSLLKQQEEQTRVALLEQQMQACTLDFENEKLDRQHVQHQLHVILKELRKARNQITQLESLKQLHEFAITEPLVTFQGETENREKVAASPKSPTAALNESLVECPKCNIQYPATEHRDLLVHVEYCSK
Sequence of E3 ubiquitin-protein ligase NEDD4 WW4 domain (human) (P46934 whole entry, the tested form may be a part): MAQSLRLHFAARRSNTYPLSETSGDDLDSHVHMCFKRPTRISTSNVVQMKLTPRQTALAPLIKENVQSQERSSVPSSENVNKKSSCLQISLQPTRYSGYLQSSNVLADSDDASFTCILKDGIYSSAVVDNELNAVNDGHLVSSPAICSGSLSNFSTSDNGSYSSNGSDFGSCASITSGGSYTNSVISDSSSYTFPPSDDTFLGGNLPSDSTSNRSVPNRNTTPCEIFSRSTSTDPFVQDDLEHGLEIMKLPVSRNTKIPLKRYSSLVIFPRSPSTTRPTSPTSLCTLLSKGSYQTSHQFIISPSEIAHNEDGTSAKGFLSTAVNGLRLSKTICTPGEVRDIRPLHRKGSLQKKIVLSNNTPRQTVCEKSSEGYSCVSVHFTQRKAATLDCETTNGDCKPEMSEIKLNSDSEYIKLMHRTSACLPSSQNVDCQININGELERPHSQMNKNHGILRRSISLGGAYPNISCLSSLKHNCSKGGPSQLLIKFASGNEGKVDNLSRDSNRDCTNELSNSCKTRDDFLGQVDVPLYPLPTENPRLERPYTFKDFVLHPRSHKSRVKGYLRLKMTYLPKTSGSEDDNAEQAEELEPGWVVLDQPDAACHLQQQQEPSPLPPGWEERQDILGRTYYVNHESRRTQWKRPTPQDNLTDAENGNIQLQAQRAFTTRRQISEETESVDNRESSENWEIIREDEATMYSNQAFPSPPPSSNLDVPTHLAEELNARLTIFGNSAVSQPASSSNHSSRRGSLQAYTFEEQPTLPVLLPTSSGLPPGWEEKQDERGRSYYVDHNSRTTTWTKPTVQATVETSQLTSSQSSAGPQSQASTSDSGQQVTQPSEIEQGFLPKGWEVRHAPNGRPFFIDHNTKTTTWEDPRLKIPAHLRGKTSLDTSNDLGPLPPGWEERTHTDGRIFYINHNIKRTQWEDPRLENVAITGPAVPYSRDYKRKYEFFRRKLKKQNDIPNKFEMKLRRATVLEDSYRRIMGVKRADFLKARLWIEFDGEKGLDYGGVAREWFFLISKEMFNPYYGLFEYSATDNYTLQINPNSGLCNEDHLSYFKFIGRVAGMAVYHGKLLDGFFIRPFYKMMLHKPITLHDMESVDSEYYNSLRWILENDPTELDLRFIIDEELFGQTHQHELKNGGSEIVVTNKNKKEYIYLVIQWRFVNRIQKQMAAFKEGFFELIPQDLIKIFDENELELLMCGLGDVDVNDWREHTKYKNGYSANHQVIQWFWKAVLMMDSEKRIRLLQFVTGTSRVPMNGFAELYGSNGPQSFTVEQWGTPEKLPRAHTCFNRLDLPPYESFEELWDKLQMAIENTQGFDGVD
Sequence of E3 ubiquitin-protein ligase NEDD4 WW2 domain (human) (P46934 whole entry, the tested form may be a part): as above
Sequence of C terminal domain of polyadenylate-binding protein 1 (human) (P11940 544-623): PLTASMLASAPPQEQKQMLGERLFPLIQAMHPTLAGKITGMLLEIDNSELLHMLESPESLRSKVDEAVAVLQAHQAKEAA

In the case of Nsp4 119-134 (BAV) (peptide), the Kd [1] is reported as 101 µM.
With N_(2-17) (BeV) peptide the fold weaker affinity than PAIP2(108-123) [2] was 10 fold.
Nsp4 118-142 (BAV) (peptide) was tested, and the Kd [1] was 160 µM.
For P 177-192 (RABV) (peptide), the Kd [3] was 22.3 µM.
NP 602-617 (REBOV) (peptide) showed a Kd [3] of 2.18 µM.
In the case of “E3 ubiquitin-protein ligase NEDD4 WW4 domain (domain or fragment)”, the Kd [4] is reported as 82 µM.
“N-terminal domain of clathrin (CLTC NTD) (from UniProt Q00610 1-1675) (domain or fragment)” showed a Kd [5] of 26 µM.
“E3 ubiquitin-protein ligase NEDD4 WW2 domain (domain or fragment)” was tested, and the Kd [4] was 16 µM.
In the case of “centrosomal protein of 55 kDa EABR domain (CEP55 EABR) (from UniProt Q53EZ4 1-464) (domain or fragment)”, the Kd [6] is reported as 310 nM.
RdRp 1840-1855 (SVV) (peptide) gave a Kd [7] of 800 µM.
In the case of Nsp3 1765-1780 (EEEV) (peptide), the Kd [7] is reported as 28 µM.
In the case of Nsp4_(118-142) (BAV) peptide, the fold weaker affinity than the syntenin-2 peptide [8] is reported as over 300 fold.
Work on VP40 1-20 (SEBOV) (peptide) yielded a Kd [9] of 22 µM and a Kd [10] of 68 µM.
“V domain of programmed cell death 6-interacting protein (ALIX V) (from UniProt Q8WUM4 1-868) (domain or fragment)” showed a Kd [11] of 2600 nM.
mu-NS 705-720 (MRV1) (peptide) was tested, and the Kd [7] was 34 µM.
